Experimental data: IntAct's records for PubMed 16642037

B1: RAC-alpha serine/threonine-protein kinase (Rattus norvegicus (Rat)), P47196 (parent)
chain: MNDVAIVKEGWLHKRGEYIKTWRPRYFLLKNDGTFIGYKERPQDVEQRESPLNNFSVAQCQLMKTERPRPNTFIIRCLQWTTVIERTFHVETPEEREEWTTAIQTVADGLKRQEEETMDFRSGSPSDNSGAEEMEVALAKPKHRVTMNEFEYLKLLGKGTFGKVILVKEKATGRYYAMKILKKEVIVAKDEVAHTLTENRVLQNSRHPFLTALKYSFQTHDRLCFVMEYANGGELFFHLSRERVFSEDRARFYGAEIVSALDYLHSEKNVVYRDLKLENLMLDKDGHIKITDFGLCKEGIKDGATMKTFCGTPEYLAPEVLEDNDYGRAVDWWGLGVVMYEMMCGRLPFYNQDHEKLFELILMEEIRFPRTLGPEAKSLLSGLLKKDPTQRLGGGSEDAKEIMQHRFFANIVWQDVYEKKLSPPFKPQVTSETDTRYFDEEFTAQMITITPPDQDDSMECVDSERRPHFPQFSYSASGTA

Variants of: B1
Settings: with nfkb1_rat Nfkb1, Q63369
Sequence of nfkb1_rat Nfkb1, Q63369 (Q63369 whole entry): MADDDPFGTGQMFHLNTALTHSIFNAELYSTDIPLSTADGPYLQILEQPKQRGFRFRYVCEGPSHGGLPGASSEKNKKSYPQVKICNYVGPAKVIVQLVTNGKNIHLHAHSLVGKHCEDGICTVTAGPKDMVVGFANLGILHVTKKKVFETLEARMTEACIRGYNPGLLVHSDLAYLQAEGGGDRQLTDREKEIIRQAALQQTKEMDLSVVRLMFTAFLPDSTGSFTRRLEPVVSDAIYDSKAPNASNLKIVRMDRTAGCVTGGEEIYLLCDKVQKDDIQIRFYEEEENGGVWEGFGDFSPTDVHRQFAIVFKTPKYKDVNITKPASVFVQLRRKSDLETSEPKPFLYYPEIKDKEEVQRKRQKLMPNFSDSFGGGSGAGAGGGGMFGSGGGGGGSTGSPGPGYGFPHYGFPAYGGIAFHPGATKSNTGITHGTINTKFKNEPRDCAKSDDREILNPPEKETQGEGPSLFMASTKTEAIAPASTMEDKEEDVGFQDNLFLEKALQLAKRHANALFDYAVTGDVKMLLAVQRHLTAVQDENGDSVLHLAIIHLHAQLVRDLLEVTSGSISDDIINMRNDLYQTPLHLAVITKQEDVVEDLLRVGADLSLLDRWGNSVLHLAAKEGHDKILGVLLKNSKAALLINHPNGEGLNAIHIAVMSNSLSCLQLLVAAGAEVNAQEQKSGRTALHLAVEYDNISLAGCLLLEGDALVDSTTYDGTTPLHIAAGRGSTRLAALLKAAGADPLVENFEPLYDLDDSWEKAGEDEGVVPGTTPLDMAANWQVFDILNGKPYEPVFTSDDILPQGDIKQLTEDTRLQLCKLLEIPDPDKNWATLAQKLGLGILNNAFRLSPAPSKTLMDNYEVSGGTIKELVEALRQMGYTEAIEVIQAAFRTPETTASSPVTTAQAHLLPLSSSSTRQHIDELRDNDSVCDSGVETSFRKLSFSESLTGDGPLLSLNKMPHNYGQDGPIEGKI

Row | effect of a mutation on the interaction | Variant
1 | increasing interaction | MNDVAIVKEGWLHKRGEYIKTWRPRYFLLKNDGTFIGYKERPQDVEQRESPLNNFSVAQCQLMKTERPRPNTFIIRCLQWTTVIERTFHVETPEEREEWTTAIQTVADGLKRQEEETMDFRSGSPSDNSGAEEMEVALAKPKHRVTMNEFEYLKLLGKGTFGKVILVKEKATGRYYAMKILKKEVIVAKDEVAHTLTENRVLQNSRHPFLTALKYSFQTHDRLCFVMEYANGGELFFHLSRERVFSEDRARFYGAEIVSALDYLHSEKNVVYRDLKLENLMLDKDGHIKITDFGLCKEGIKDGATMKTFCGTPEYLAPEVLEDNDYGRAVDWWGLGVVMYEMMCGRLPFYNQDHEKLFELILMEEIRFPRTLGPEAKSLLSGLLKKDPTQRLGGGSEDAKEIMQHRFFANIVWQDVYEKKLSPPFKPQVTSETDTRYFDEEFTAQMITITPPDQDDSMECVDSERRPHFPQFDYSASGTA [S473D]
2 | increasing interaction | MNDVAIVKEGWLHKRGEYIKTWRPRYFLLKNDGTFIGYKERPQDVEQRESPLNNFSVAQCQLMKTERPRPNTFIIRCLQWTTVIERTFHVETPEEREEWTTAIQTVADGLKRQEEETMDFRSGSPSDNSGAEEMEVALAKPKHRVTMNEFEYLKLLGKGTFGKVILVKEKATGRYYAMKILKKEVIVAKDEVAHTLTENRVLQNSRHPFLTALKYSFQTHDRLCFVMEYANGGELFFHLSRERVFSEDRARFYGAEIVSALDYLHSEKNVVYRDLKLENLMLDKDGHIKITDFGLCKEGIKDGATMKDFCGTPEYLAPEVLEDNDYGRAVDWWGLGVVMYEMMCGRLPFYNQDHEKLFELILMEEIRFPRTLGPEAKSLLSGLLKKDPTQRLGGGSEDAKEIMQHRFFANIVWQDVYEKKLSPPFKPQVTSETDTRYFDEEFTAQMITITPPDQDDSMECVDSERRPHFPQFSYSASGTA [T308D]
3 | increasing interaction | MNDVAIVKEGWLHKRGEYIKTWRPRYFLLKNDGTFIGYKERPQDVEQRESPLNNFSVAQCQLMKTERPRPNTFIIRCLQWTTVIERTFHVETPEEREEWTTAIQTVADGLKRQEEETMDFRSGSPSDNSGAEEMEVALAKPKHRVTMNEFEYLKLLGKGTFGKVILVKEKATGRYYAMAILKKEVIVAKDEVAHTLTENRVLQNSRHPFLTALKYSFQTHDRLCFVMEYANGGELFFHLSRERVFSEDRARFYGAEIVSALDYLHSEKNVVYRDLKLENLMLDKDGHIKITDFGLCKEGIKDGATMKTFCGTPEYLAPEVLEDNDYGRAVDWWGLGVVMYEMMCGRLPFYNQDHEKLFELILMEEIRFPRTLGPEAKSLLSGLLKKDPTQRLGGGSEDAKEIMQHRFFANIVWQDVYEKKLSPPFKPQVTSETDTRYFDEEFTAQMITITPPDQDDSMECVDSERRPHFPQFSYSASGTA [K179A]
